Measurements published in paper PMC7181051, “Probing the Protein-Protein Interaction between the ATRXADD Domain and the Histone H3 Tail” (Molecules, 2020).
Several values for one entry are separate records, joined by “and”; a condition that tells them apart may be missing. Equal entries are not always repeated.

How the values were obtained:
[1] = molecular target: ATRXADD-His (His-tagged ATRX ADD domain) (UniProt P46100); assay: AlphaScreen or HTRF; competition, Ni-NTA kit: ATRXADD-His (625 nM), H3_(1-15)K9me3-biotin (94 nM), 20 μg/mL of each bead, unlabeled peptide added; HEPES buffer (50 mM HEPES, 100 mM NaCl, 0.1% Triton X-100, 0.1% BSA); 1 hour, room temperature, dark
[2] = molecular target: Histone H3 (Homo sapiens) (UniProt P68431); conditions: cited from earlier work
[3] = molecular target: Histone H3 H3 tail peptide (Homo sapiens) (UniProt P68431); conditions: cited from earlier work
[4] = molecular target: Histone H3 1-15 (Homo sapiens) (UniProt P68431); assay: ITC; conditions: cited from earlier work
[5] = molecular target: ATRXADD-His (His-tagged ATRX ADD domain) (UniProt P46100); assay: AlphaScreen or HTRF; direct signal, Nickel Chelate (Ni-NTA) kit: H3_(1-15)K9me3-biotin on streptavidin beads, ATRXADD-His on Ni-NTA beads; 20 μg/mL of each bead

Substance: H3_(1-15)K9me1 peptide (from UniProt P68431 2-16)
- IC50 [1]: > 10 µM

Substance: H3_(1-15)K9me0 peptide (from UniProt P68431 2-16)
- IC50 [1]: > 10 µM

Substance: ATRX ADD (from UniProt P46100)
- Kd [2]: > 80 µM
- Kd [3]: > 80 µM
- Kd [4]: 0.385 µM and 2.7 µM

Substance: H3_(1-15)K9me3-biotin peptide (biotin label at the C-terminus) (from UniProt P68431 2-16)
- AlphaScreen signal [5]: 1.25e+06
